# Experimental data as given in IntAct's records for PubMed 25083872.
# B1: Vesicle-associated membrane protein-associated protein SCS2 (Saccharomyces cerevisiae), P40075 (parent)
# chain: MSAVEISPDVLVYKSPLTEQSTEYASISNNSDQTIAFKVKTTAPKFYCVRPNAAVVAPGETIQVQVIFLGLTEEPAADFKCRDKFLVITLPSPYDLNGKAVADVWSDLEAEFKQQAISKKIKVKYLISPDVHPAQNQNIQENKETVEPVVQDSEPKEVPAVVNEKEVPAEPETQPPVQVKKEEVPPVVQKTVPHENEKQTSNSTPAPQNQIKEAATVPAENESSSMGIFILVALLILVLGWFYR
# partner: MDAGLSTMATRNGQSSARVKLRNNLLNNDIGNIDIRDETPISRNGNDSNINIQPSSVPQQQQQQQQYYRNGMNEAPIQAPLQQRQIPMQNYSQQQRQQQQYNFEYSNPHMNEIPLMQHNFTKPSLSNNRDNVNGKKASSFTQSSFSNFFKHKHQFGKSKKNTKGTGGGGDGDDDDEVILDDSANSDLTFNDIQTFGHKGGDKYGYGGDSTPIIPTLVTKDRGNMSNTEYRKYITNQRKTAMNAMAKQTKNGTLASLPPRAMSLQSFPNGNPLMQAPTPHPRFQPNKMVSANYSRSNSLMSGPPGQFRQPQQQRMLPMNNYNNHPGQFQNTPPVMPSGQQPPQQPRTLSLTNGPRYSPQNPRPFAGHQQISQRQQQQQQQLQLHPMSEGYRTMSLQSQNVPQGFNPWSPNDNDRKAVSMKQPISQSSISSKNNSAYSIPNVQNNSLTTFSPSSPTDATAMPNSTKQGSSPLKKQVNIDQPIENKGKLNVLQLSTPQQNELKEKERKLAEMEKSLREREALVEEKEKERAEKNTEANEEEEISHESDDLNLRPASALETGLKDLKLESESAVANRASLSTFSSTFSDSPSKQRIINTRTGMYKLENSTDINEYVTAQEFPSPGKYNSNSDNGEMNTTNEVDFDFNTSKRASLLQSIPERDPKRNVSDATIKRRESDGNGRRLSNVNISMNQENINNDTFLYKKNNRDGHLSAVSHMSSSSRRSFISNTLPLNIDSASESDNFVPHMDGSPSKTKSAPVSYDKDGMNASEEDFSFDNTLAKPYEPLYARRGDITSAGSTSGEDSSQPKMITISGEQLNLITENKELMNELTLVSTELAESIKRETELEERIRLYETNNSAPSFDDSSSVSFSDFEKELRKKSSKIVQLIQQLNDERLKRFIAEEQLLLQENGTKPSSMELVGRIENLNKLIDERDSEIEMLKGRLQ
# Variants of: B1
# Details: with ym11_yeast ym11, P39523
row,effect of a mutation on the interaction,Variant
1,disrupting interaction strength,T42A
